Measured values published in patent US20210032312A1 (Janssen / Centocor, published 2021).
Residue numbers refer to the chain shown, from its start. Blank lines part the entries; values can stand above or below the binder they belong to.

Legend:
[1] = biological target: T1, human CD8A-Fc (in house) (human, UniProt P01732 22-182, limits assumed); experiment: SPR (ProteOn), captured hCD8A-Fc
T1 construct: captured by goat anti-human Fc on the ProteOn chip; also called hCD8A-Fc; recombinant human CD8 alpha; not shown: linker/tag and Fc of human IgG1

[2] = biological target: T2, cynomolgus monkey CD8 alpha on primary cynomolgus CD8+ T cells (cynomolgus monkey, UniProt P01732 23-235 (human entry)); experiment: flow cytometry, cyno CD8+ T cells
T2 construct: also called Cyno CD8alpha; cyno CD8A
Description: (§1) Binding of the 190 ELISA hits to human and cynomologous monkey primary CD8 T cells was assessed by flow cytometry. The FN3 domain molecules were diluted to 2 μM and 0.2 μM in PBS and incubated with human or cynomologous monkey CD8+ T cells in 96-well format. After 1 hour at 4 C, the cells were washed once with PBS and then resuspended with an anti-FN3 domain antibody (PAB25) solution. Following this incubation, the cells were washed twice with PBS and a PE conjugated secondary antibody and a viability dye were added. Finally, cells were washed and resuspended in PBS for flow cytometric analysis using a BD Canto Instrument. Cells were gating on live cells and median fluorescence intensity of the bound Centyrins (PE channel) was calculated using Cytobank software.

[3] = biological target: T3, human CD8 alpha (CD8A) on primary human CD8+ T cells (human, UniProt P01732 22-235); experiment: flow cytometry, human CD8+ T cells
T3 construct: whole, on cells; also called hCD8A
Description: as §1

T1 sequence (P01732 22-182 limits assumed): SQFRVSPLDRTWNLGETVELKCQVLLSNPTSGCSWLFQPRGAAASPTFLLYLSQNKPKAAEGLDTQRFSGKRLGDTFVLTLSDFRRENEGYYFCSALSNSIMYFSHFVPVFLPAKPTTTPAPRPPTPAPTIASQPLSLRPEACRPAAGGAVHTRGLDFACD
T2 sequence (P01732 other isoform, or with tags, fused parts or gaps limits assumed): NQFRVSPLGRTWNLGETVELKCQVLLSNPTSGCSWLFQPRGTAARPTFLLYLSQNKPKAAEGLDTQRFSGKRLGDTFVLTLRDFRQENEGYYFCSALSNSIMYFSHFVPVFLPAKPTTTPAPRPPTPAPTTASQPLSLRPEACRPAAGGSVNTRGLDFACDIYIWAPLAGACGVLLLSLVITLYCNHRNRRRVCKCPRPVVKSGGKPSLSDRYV
T3 sequence (P01732 22-235): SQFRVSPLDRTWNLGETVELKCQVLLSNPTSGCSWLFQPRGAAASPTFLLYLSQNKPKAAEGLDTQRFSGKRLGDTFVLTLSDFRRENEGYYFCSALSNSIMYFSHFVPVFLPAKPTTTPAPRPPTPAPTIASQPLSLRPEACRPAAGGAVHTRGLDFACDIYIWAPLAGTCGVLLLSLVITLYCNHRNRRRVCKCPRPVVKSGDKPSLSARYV

B2: P283GR7P1367_B9 (designed binder)
chain: LPAPKNLVVSRVTEDSARLSWTAPDAAFDSFEIWYHEYHPRGEAIVLTVPSSERSYDLTGLKPGTEYDVVISGVKGGHWSYPLSAIFTT
notes: FN3 domain
koff [1]: 0.00116 s⁻¹ | Cyno T-cell Binding 0.2 uM (MFI) [2]: 442 MFI | Cyno T-cell Binding 2 uM (MFI) [2]: 2920 MFI | Human T-cell Binding 0.2 uM (MFI) [3]: 1090 MFI | Human T-cell Binding 2 uM (MFI) [3]: 11200 MFI

B4: P283FR9P1366_H5 (designed binder)
chain: LPAPKNLVVSRVTEDSARLSWTAPDAAFDSFIYIENKVNGEAIVLTVPGSERSYDLTGLKPGTEYHVTIGGVKGGTESNTLSAIFTT
notes: FN3 domain
koff [1]: 0.00318 s⁻¹ | Cyno T-cell Binding 0.2 uM (MFI) [2]: 477 MFI | Cyno T-cell Binding 2 uM (MFI) [2]: 5090 MFI | Human T-cell Binding 0.2 uM (MFI) [3]: 252 MFI | Human T-cell Binding 2 uM (MFI) [3]: 3140 MFI

B5: P283FR9P1366_H8 (designed binder)
chain: LPAPKNLVVSRVTEDSARLSWTAPDAAFDSFYISYPEWPGSGEAIVLTVPGSERSYDLTGLKPGTEYAVFIWCVKGGWLSDPLSAIFTT
notes: FN3 domain
koff [1]: 0.000175 s⁻¹ | Cyno T-cell Binding 0.2 uM (MFI) [2]: 17100 MFI | Cyno T-cell Binding 2 uM (MFI) [2]: 61300 MFI | Human T-cell Binding 0.2 uM (MFI) [3]: 4540 MFI | Human T-cell Binding 2 uM (MFI) [3]: 24900 MFI

B7: P283FR9P1366_H10 (designed binder)
chain: B5 chain with Y32N, S34A, G40P, S41E, A68F, F70V, W72Y, C73G, W78H
notes: FN3 domain
koff [1]: 0.00063 s⁻¹ | Cyno T-cell Binding 0.2 uM (MFI) [2]: 13900 MFI | Cyno T-cell Binding 2 uM (MFI) [2]: 75200 MFI | Human T-cell Binding 0.2 uM (MFI) [3]: 2410 MFI | Human T-cell Binding 2 uM (MFI) [3]: 25000 MFI

B9: P283GR7P1367_A11 (designed binder)
chain: LPAPKNLVVSRVTEDSARLSWTAPDAAFDSFDIAYPEWPTDGEAIVLTVPGSERSYDLTGLKPGTEYFVIIYGVKGGSYSEPLSAIFTT
notes: FN3 domain
koff [1]: 0.000635 s⁻¹ | Cyno T-cell Binding 0.2 uM (MFI) [2]: 5670 MFI | Cyno T-cell Binding 2 uM (MFI) [2]: 66700 MFI | Human T-cell Binding 0.2 uM (MFI) [3]: 1030 MFI | Human T-cell Binding 2 uM (MFI) [3]: 11300 MFI

B11: P283GR7P1367_B7 (designed binder)
chain: B9 chain with I70V, S78H, Y79W, E81Y
notes: FN3 domain
koff [1]: 0.00127 s⁻¹ | Cyno T-cell Binding 0.2 uM (MFI) [2]: 3130 MFI | Cyno T-cell Binding 2 uM (MFI) [2]: 37500 MFI | Human T-cell Binding 0.2 uM (MFI) [3]: 739 MFI | Human T-cell Binding 2 uM (MFI) [3]: 10900 MFI

B13: P283FR9P1366_H9 (designed binder)
chain: B9 chain with D32E, T40V, D41N, F68W, I70V, Y72W, S78V, Y79N, E81Y
notes: FN3 domain
koff [1]: 0.00198 s⁻¹ | Cyno T-cell Binding 0.2 uM (MFI) [2]: 2880 MFI | Cyno T-cell Binding 2 uM (MFI) [2]: 36500 MFI | Human T-cell Binding 0.2 uM (MFI) [3]: 693 MFI | Human T-cell Binding 2 uM (MFI) [3]: 8570 MFI

B15: P283GR7P1367_B4 (designed binder)
chain: LPAPKNLVVSRVTEDSARLSWTAPDAAFDSFSILYYELPPSGEAIVLTVPGSERSYDLTGLKPGTEYTVSIFGVKGGDNSFPLSAIFTT
notes: FN3 domain
koff [1]: 0.00518 s⁻¹ | Cyno T-cell Binding 0.2 uM (MFI) [2]: 367 MFI | Cyno T-cell Binding 2 uM (MFI) [2]: 396 MFI | Human T-cell Binding 0.2 uM (MFI) [3]: 446 MFI | Human T-cell Binding 2 uM (MFI) [3]: 8300 MFI

B18: P283HR7P1368_D1 (designed binder)
chain: LPAPKNLVVSRVTEDSARLSWTAPDAAFDSFGISYYEWAPNGEAIQLSVPGSERSYDLTGLKPGTEYHVVIIGVKGGEPSHPLGAPFTT
notes: FN3 domain
koff [1]: 0.00166 s⁻¹ | Cyno T-cell Binding 0.2 uM (MFI) [2]: 1410 MFI | Cyno T-cell Binding 2 uM (MFI) [2]: 7850 MFI | Human T-cell Binding 0.2 uM (MFI) [3]: 2310 MFI | Human T-cell Binding 2 uM (MFI) [3]: 14100 MFI

B19: P283ER9P1365_G3 (designed binder)
chain: B18 chain with P86I
notes: FN3 domain
koff [1]: 0.0025 s⁻¹ | Cyno T-cell Binding 0.2 uM (MFI) [2]: 1470 MFI | Cyno T-cell Binding 2 uM (MFI) [2]: 3480 MFI | Human T-cell Binding 0.2 uM (MFI) [3]: 2920 MFI | Human T-cell Binding 2 uM (MFI) [3]: 12500 MFI

Further lines, results first:

koff [1]: 0.00974 s⁻¹ | Cyno T-cell Binding 0.2 uM (MFI) [2]: 930 MFI | Cyno T-cell Binding 2 uM (MFI) [2]: 20900 MFI | Human T-cell Binding 0.2 uM (MFI) [3]: 303 MFI | Human T-cell Binding 2 uM (MFI) [3]: 5270 MFI
B1: P283GR7P1367_H8 (designed binder)
chain: LPAPKNLVVSRVTEDSARLSWTAPDAAFDSFSINYWEEDPAGEAIVLTVPGSERSYDLTGLKPGTEYRVLIGGVKGGHGSLPLSAIFTT
notes: FN3 domain

koff [1]: 0.00124 s⁻¹ | Cyno T-cell Binding 0.2 uM (MFI) [2]: 533 MFI | Cyno T-cell Binding 2 uM (MFI) [2]: 3190 MFI | Human T-cell Binding 0.2 uM (MFI) [3]: 1330 MFI | Human T-cell Binding 2 uM (MFI) [3]: 10000 MFI
B3: P283GR7P1367_E5 (designed binder)
chain: B2 chain with S51G
notes: FN3 domain

koff [1]: 0.00108 s⁻¹ | Cyno T-cell Binding 0.2 uM (MFI) [2]: 2050 MFI | Cyno T-cell Binding 2 uM (MFI) [2]: 29000 MFI | Human T-cell Binding 0.2 uM (MFI) [3]: 601 MFI | Human T-cell Binding 2 uM (MFI) [3]: 4560 MFI
B6: P283GR7P1367_F5 (designed binder)
chain: B9 chain with S78A, Y79L, E81R
notes: FN3 domain

koff [1]: 0.00221 s⁻¹ | Cyno T-cell Binding 0.2 uM (MFI) [2]: 5550 MFI | Cyno T-cell Binding 2 uM (MFI) [2]: 67000 MFI | Human T-cell Binding 0.2 uM (MFI) [3]: 896 MFI | Human T-cell Binding 2 uM (MFI) [3]: 11000 MFI
B8: P283GR7P1367_C9 (designed binder)
chain: B9 chain with D32L, A34G, T40L, D41G, F68W, S78E, E81D
notes: FN3 domain

koff [1]: 0.00235 s⁻¹ | Cyno T-cell Binding 0.2 uM (MFI) [2]: 864 MFI | Cyno T-cell Binding 2 uM (MFI) [2]: 4210 MFI | Human T-cell Binding 0.2 uM (MFI) [3]: 390 MFI | Human T-cell Binding 2 uM (MFI) [3]: 1620 MFI
B10: P283GR7P1367_H2 (designed binder)
chain: B9 chain with I70V, S78G, Y79R, E81Y
notes: FN3 domain

koff [1]: 0.00147 s⁻¹ | Cyno T-cell Binding 0.2 uM (MFI) [2]: 918 MFI | Cyno T-cell Binding 2 uM (MFI) [2]: 6120 MFI | Human T-cell Binding 0.2 uM (MFI) [3]: 434 MFI | Human T-cell Binding 2 uM (MFI) [3]: 1710 MFI
B12: P283GR7P1367_H9 (designed binder)
chain: B9 chain with I70V, S78G, Y79R, E81A
notes: FN3 domain

koff [1]: 0.000373 s⁻¹ | Cyno T-cell Binding 0.2 uM (MFI) [2]: 1340 MFI | Cyno T-cell Binding 2 uM (MFI) [2]: 14900 MFI | Human T-cell Binding 0.2 uM (MFI) [3]: 2650 MFI | Human T-cell Binding 2 uM (MFI) [3]: 19300 MFI
B14: P283HR7P1368_G11 (designed binder)
chain: LPAPKNLVVSRVTEDSARLSWTAPDAAFDSFGIGYAEPAVTGEAISLSVPGSERSYDLTGLKPGTEYWVVIIGVKGGINSYPLGASFTT
notes: FN3 domain

koff [1]: 0.000513 s⁻¹ | Cyno T-cell Binding 0.2 uM (MFI) [2]: 4770 MFI | Cyno T-cell Binding 2 uM (MFI) [2]: 42300 MFI | Human T-cell Binding 0.2 uM (MFI) [3]: 3230 MFI | Human T-cell Binding 2 uM (MFI) [3]: 13600 MFI
B16: P283HR7P1368_A10 (designed binder)
chain: LPAPKNLVVSRVTEDSARLSWTAPDAAFDSFWIFYLEPFPRGEAIPLEVPGSERSYDLTGLKPGTEYSVDIRGVKGGDHSDPLWAYFTT
notes: FN3 domain

koff [1]: 0.00385 s⁻¹ | Cyno T-cell Binding 0.2 uM (MFI) [2]: 1420 MFI | Cyno T-cell Binding 2 uM (MFI) [2]: 21000 MFI | Human T-cell Binding 0.2 uM (MFI) [3]: 450 MFI | Human T-cell Binding 2 uM (MFI) [3]: 1460 MFI
B17: P283GR7P1367_G8 (designed binder)
chain: LPAPKNLVVSRVTEDSARLSWTAPDAAFDSFYIAYPEYVWGGEATSLGEAIVLTVPGSERSYDLTGLKPGTEYFVVITGVKGGLGSYPLSAIFTT
notes: FN3 domain

koff [1]: 4.53e-05 s⁻¹ | Cyno T-cell Binding 0.2 uM (MFI) [2]: 826 MFI | Cyno T-cell Binding 2 uM (MFI) [2]: 18600 MFI | Human T-cell Binding 0.2 uM (MFI) [3]: 1540 MFI | Human T-cell Binding 2 uM (MFI) [3]: 13400 MFI
B20: P283HR7P1368_B12 (designed binder)
chain: B18 chain with S34G, Y36V, W38F, A39T, P40R, N41A, Q46S
notes: FN3 domain

koff [1]: 0.000552 s⁻¹ | Cyno T-cell Binding 0.2 uM (MFI) [2]: 1970 MFI | Cyno T-cell Binding 2 uM (MFI) [2]: 17300 MFI | Human T-cell Binding 0.2 uM (MFI) [3]: 2460 MFI | Human T-cell Binding 2 uM (MFI) [3]: 15400 MFI
B21: P283HR7P1368_H1 (designed binder)
chain: B18 chain with S34A, Y36I, W38T, P40R, N41W, Q46S, S48T, H68N, E78T
notes: FN3 domain
